Assay results as given in patent US8609413B2, “Neurons, astrocytes and oligodendrocytes differentiated from a mammalian pluripotent or neural stem cells exposed to a pyridine deriviative” (Research Development Foundation, priority 2007, dated 2013).

System: human ESC-derived NPC / ESC aggregates
Test: Air/liquid interface three-dimensional culture with added factors
Type: cell-based
Settings: exogenously added factor
Source text: Air/liquid interface expansion/differentiation of NPC may be performed via the following protocol. One or more rosettes-enriched clusters may be manually removed and multiple clusters (e.g., about 5-10 clusters) may be plated on a hydrophilic polytetrafluoroethylene (PTFE) membrane (e.g., 6 mm diameter, 0.4 μm, BioCell-Interface, La Chaux-de-Fonds, Switzerland). This membrane may be deposited on a Millicell®-CM (0.4 μm) Culture Plate Insert (Millipore) (FIG. 5A). N2 medium may preferably be added (e.g., about 1 ml) underneath the membrane insert.
Air/liquid interface expansion/differentiation of NPC. Rosettes-enriched cluster were manually removed and 5-10 clusters were plated on a hydrophilic polytetrafluoroethylene (PTFE) membrane (6 mm diameter, 0.4 μm, BioCell-Interface, La Chaux-de-Fonds, Switzerland). This membrane was deposited on a Millicell®-CM (0.4 μm) Culture Plate Insert (Millipore) (FIG. 1). One ml of N2 medium was added underneath the membrane insert.

B1: Noggin: a polypeptide playing a key role in neural induction (protein, UniProt Q13253 28-232, looked up)
Noggin: QHYLHIRPAPSDNLPLVDLIEHPDPIFDPKEKDLNETLLRSLLGGHYDPGFMATSPPEDRPGGGGGAAGGAEDLAELDQLLRQRPSGAMPSEIKGLEFSEGLAQGKKQRLSKKLRRKLQMWLWSQTFCPVLYAWNDLGSRFWPRYVKVGSCFSKRSCSVPEGMVCKPSKSVHLTVLRWRCQRRGGQRCGWIPIQYPIISECKCSC
In the case of B1, the “phenotype of engineered tissue” value is reported as “had no influence on the self-organization and phenotype”.
